{"source": "paper PMC12084805", "assay_in_all_cases": "EMSA", "key": {"[1]": {"molecular_target": "T1, POT-2 (Caenorhabditis elegans, UniProt O45595 1-251)", "T1 sequence": "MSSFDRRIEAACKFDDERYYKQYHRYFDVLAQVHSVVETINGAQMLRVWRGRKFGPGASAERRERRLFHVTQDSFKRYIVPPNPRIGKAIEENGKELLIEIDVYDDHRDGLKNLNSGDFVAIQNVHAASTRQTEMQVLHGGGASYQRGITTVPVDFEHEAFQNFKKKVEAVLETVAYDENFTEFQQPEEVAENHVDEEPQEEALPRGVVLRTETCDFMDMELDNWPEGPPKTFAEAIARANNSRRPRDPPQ"}, "[2]": {"molecular_target": "T2, POT-3 (Caenorhabditis elegans, UniProt G5EFG7 1-215)", "T2 sequence": "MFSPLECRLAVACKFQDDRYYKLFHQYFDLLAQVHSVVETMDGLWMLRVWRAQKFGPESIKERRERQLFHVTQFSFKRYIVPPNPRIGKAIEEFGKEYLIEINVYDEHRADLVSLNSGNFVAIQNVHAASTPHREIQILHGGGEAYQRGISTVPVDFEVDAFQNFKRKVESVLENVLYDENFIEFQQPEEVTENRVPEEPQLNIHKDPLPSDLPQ"}, "[3]": {"molecular_target": "T1, POT-2", "remark": "listed apart in the source"}, "[4]": {"molecular_target": "T2, POT-3", "remark": "listed apart in the source"}}, "note": "Like-named read-outs stand apart in the source and are kept apart here.", "data": [{"binder": "TTAGGCTTAGGC (ssDNA)", "note": "[ss (TTAGGC)2]", "values": [{"measurement": "binding result", "setting": "[1]", "result": "binds"}, {"measurement": "binding result", "setting": "[2]", "result": "binds"}]}, {"binder": "TTAGGTTTAGGT (ssDNA)", "note": "[ss (TTAGGT)2]", "values": [{"measurement": "binding result", "setting": "[3]", "result": "no binding"}, {"measurement": "binding result", "setting": "[4]", "result": "no binding"}]}, {"binder": "TTAGACTTAGAC (ssDNA)", "note": "[ss (TTAGAC)2]", "values": [{"measurement": "binding result", "setting": "[3]", "result": "no binding"}, {"measurement": "binding result", "setting": "[4]", "result": "no binding"}]}]}
